Laboratory results reported in patent US20260232769A1 (WUXI BIOLOGICS IRELAND, published 2026).
Read-outs that look alike come from different tables or passages of the source.

T1: IL-2Rβ/γc complex (intermediate affinity receptor) on primary human CD8+ T cells (human, UniProt P14784 27-551; P31785 23-369)
T1 sequence (looked up) 1: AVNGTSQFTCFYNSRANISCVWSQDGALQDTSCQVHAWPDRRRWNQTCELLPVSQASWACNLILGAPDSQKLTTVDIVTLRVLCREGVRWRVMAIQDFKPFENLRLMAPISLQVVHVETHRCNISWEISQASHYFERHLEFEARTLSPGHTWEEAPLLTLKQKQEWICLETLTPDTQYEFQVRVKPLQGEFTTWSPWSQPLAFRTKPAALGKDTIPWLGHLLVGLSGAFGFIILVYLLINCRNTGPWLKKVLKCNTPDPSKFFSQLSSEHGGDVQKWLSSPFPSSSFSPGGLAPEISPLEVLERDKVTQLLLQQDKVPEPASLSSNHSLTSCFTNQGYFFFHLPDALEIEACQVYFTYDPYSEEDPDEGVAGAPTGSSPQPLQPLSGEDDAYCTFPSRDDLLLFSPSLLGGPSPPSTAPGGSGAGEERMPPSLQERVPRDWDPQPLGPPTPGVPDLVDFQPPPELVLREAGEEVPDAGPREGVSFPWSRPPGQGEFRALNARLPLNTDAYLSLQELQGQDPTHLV
T1 sequence (looked up) 2: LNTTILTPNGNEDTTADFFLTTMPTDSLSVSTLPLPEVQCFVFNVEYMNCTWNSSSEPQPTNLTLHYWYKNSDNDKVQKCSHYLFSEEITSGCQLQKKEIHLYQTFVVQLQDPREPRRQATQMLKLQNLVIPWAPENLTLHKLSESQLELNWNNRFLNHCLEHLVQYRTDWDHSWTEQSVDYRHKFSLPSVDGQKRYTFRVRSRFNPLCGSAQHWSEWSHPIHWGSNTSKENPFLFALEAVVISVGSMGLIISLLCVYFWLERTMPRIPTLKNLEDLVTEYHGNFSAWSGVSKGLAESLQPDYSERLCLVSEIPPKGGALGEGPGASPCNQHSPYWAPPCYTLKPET

T2: IL-2Rα/β/γc complex (high affinity receptor) on human activated CD8+ T cells (human, UniProt P01589 22-272; P14784 27-551; P31785 23-369)
T2 sequence (looked up) 1: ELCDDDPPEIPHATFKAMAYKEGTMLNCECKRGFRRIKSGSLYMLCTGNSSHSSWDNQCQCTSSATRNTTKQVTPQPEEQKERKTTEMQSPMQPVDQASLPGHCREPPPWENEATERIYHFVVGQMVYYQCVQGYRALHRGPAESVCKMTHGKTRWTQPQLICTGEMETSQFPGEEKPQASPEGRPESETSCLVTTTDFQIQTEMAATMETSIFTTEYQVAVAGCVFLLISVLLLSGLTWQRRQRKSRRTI
T2 sequence (looked up) 2: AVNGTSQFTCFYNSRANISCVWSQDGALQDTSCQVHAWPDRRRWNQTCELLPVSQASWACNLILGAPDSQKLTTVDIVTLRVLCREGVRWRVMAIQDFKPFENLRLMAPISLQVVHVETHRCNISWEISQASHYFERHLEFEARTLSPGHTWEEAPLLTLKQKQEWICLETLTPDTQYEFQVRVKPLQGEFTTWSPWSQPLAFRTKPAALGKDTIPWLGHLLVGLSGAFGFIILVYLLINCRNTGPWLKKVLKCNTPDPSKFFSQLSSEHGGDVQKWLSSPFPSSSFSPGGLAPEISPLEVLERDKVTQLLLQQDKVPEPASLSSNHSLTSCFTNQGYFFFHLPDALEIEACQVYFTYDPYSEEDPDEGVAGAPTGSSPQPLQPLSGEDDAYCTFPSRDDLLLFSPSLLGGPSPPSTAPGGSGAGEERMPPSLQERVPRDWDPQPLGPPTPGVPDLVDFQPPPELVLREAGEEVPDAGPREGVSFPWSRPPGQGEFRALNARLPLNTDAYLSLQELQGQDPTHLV
T2 sequence (looked up) 3: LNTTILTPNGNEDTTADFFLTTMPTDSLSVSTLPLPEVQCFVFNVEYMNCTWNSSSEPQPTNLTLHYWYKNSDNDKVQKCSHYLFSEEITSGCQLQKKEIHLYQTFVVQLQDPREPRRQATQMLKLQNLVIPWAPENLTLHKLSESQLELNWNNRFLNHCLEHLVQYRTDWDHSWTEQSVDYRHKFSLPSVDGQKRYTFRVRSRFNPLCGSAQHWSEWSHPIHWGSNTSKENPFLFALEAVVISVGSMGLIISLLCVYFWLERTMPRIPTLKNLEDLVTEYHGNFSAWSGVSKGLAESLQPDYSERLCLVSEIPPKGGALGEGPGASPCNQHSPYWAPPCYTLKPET

T3: IL-2Rα (CD25) on human activated CD8+ T cells (human, UniProt P01589 22-272)
T3 sequence (looked up): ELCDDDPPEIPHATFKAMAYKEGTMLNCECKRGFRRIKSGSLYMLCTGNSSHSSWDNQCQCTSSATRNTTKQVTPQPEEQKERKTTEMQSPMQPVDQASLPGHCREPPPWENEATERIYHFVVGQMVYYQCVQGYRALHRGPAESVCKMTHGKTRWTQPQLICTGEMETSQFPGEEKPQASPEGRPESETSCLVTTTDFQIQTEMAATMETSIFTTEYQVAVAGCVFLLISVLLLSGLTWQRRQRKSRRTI


Columns and labels:
Assay in all cases: cell-based or functional assay
[1] = target: T1, IL-2Rβ/γc complex (intermediate …)
[2] = target: T2, IL-2Rα/β/γc complex (high affinity …)
[3] = target: IL-2Rα/β/γc complex (high affinity receptor) on human activated CD8+ T cells (human) (UniProt P01589)
[4] = target: T3, IL-2Rα (CD25) on human activated CD8+ T …
[5] = target: T1, IL-2Rβ/γc complex (intermediate …); remark: listed apart in the source
[6] = target: T2, IL-2Rα/β/γc complex (high affinity …); remark: listed apart in the source
[7] = target: PD-1 (on CHO-PD1 engineered cell line; on activated CD8+ T cells) (UniProt Q15116 25-288, limits assumed)

Potency reduction, pSTAT5, human primary CD8+ T [1]	pSTAT5 EC50, human primary CD8+ T [1]	Potency reduction, pSTAT5, human activated CD8+ T [2]	pSTAT5 EC50, human activated CD8+ T [2]	Binder	further results
2.7 fold	300 nM	14.7 fold	0.25 nM	W3XX115-T2U0.E44-48.uIgG4V322 (Fc fusion) APTSSSTKKTQLQLEHLLLDLQMILNGINNYKNPKLTRMLTFKFYMPKKATELKHLQCLEEELKPLEEVLNLAQSKNFHLRPRDLISNINVIVLELKGSETTFMCEYADETATIVEFLNRWYTFCQSILESKYGPPCPPCPAPEAAGGPSVFLFPPKPKDTLMISRTPEVTCVVVDVSQEDPEVQFNWYVDGVEVHNAKTKPREEQFNSTYRVVSVLTVLHQDWLNGKEYKCKVSNKGLPSSIEKTISKAKGQPREPQVYTLPPCQEEMTKNQVSLWCLVKGFYPSDIAVEWESNGQPENNYKTTPPVLDSDGSFFLYSRLTVDKSRWQEGNVFSCSVMHEALHNHYTQKSLSLSLG heavy: EIQLQQSGPELVKPGASVKVSCKASGYSFTDYNMYWVKQSHGESLEWIGYIDPYNGGTRYNQKFKGKATLTVDKSSSTAFMHLNSLTSEDSAVYYCARNGHWDGAWFAYWGQGTLVTVSAASTKGPSVFPLAPCSRSTSESTAALGCLVKDYFPEPVTVSWNSGALTSGVHTFPAVLQSSGLYSLSSVVTVPSSSLGTKTYTCNVDHKPSNTKVDKRVESKYGPPCPPCPAPEAAGGPSVFLFPPKPKDTLMISRTPEVTCVVVDVSQEDPEVQFNWYVDGVEVHNAKTKPREEQFNSTYRVVSVLTVLHQDWLNGKEYKCKVSNKGLPSSIEKTISKAKGQPREPQVCTLPPSQEEMTKNQVSLSCAVKGFYPSDIAVEWESNGQPENNYKTTPPVLDSDGSFFLVSRLTVDKSRWQEGNVFSCSVMHEALHNHYTQKSLSLSLG light: DIQMNQSPSSLSASLGDTITITCHASQNINVWLSWYQQKPGNIPKLLIYKASNLHTGVPSRFSGSRSGTGFTLTISSLQPEDIATYYCHQGQSYPFTFGSGTKLEIKRTVAAPSVFIFPPSDEQLKSGTASVVCLLNNFYPREAKVQWKVDNALQSGNSQESVTEQDSKDSTYSLSSTLTLSKADYEKHKVYACEVTHQGLSSPVTKSFNRGEC	–
3.8 fold	425 nM	22.2 fold	0.38 nM	W3XX115-T2U0.E44-49.uIgG4V322 (Fc fusion) APTSSSTKKTQLQLEHLLLDLQMILNGINNYDNPKLTRMLTFKFYMPKKATELKHLQCLEEELKPLEEVLNLAQSKNFHLRPRDLISNINVIVLELKGSETTFMCEYADETATIVEFLNRWITFCQSILESKYGPPCPPCPAPEAAGGPSVFLFPPKPKDTLMISRTPEVTCVVVDVSQEDPEVQFNWYVDGVEVHNAKTKPREEQFNSTYRVVSVLTVLHQDWLNGKEYKCKVSNKGLPSSIEKTISKAKGQPREPQVYTLPPCQEEMTKNQVSLWCLVKGFYPSDIAVEWESNGQPENNYKTTPPVLDSDGSFFLYSRLTVDKSRWQEGNVFSCSVMHEALHNHYTQKSLSLSLG heavy: EIQLQQSGPELVKPGASVKVSCKASGYSFTDYNMYWVKQSHGESLEWIGYIDPYNGGTRYNQKFKGKATLTVDKSSSTAFMHLNSLTSEDSAVYYCARNGHWDGAWFAYWGQGTLVTVSAASTKGPSVFPLAPCSRSTSESTAALGCLVKDYFPEPVTVSWNSGALTSGVHTFPAVLQSSGLYSLSSVVTVPSSSLGTKTYTCNVDHKPSNTKVDKRVESKYGPPCPPCPAPEAAGGPSVFLFPPKPKDTLMISRTPEVTCVVVDVSQEDPEVQFNWYVDGVEVHNAKTKPREEQFNSTYRVVSVLTVLHQDWLNGKEYKCKVSNKGLPSSIEKTISKAKGQPREPQVCTLPPSQEEMTKNQVSLSCAVKGFYPSDIAVEWESNGQPENNYKTTPPVLDSDGSFFLVSRLTVDKSRWQEGNVFSCSVMHEALHNHYTQKSLSLSLG light: DIQMNQSPSSLSASLGDTITITCHASQNINVWLSWYQQKPGNIPKLLIYKASNLHTGVPSRFSGSRSGTGFTLTISSLQPEDIATYYCHQGQSYPFTFGSGTKLEIKRTVAAPSVFIFPPSDEQLKSGTASVVCLLNNFYPREAKVQWKVDNALQSGNSQESVTEQDSKDSTYSLSSTLTLSKADYEKHKVYACEVTHQGLSSPVTKSFNRGEC	–
–	–	–	–	W3XX115-BMK8 (Fc fusion, part only; not given: Fab heavy and light chains, part only) APTSSSTKKTQLQLEHLRLDLEMILNGINNYKNPKLTRMLTFKFYMPKKATELKHLQCLEEELKPLEEVLNLAQSKNFHLRPRDLISNINVIVLELKGSETTFMCEYADETATIVEFLNRWITFCKSIISTLTESKYGPPCPPCPAPEFLGGPSVFLFPPKPKDTLMISRTPEVTCVVVDVSQEDPEVQFNWYVDGVEVHNAKTKPREEQFNSTYRVVSVLTVLHQDWLNGKEYKCKVSNKGLPSSIEKTISKAKGQPREPQVYTLPPCQEEMTKNQVSLWCLVKGFYPSDIAVEWESNGQPENNYKTTPPVLDSDGSFFLYSRLTVDKSRWQEGNVFSCSVMHEALHNHYTQKSLSLSLG	Potency reduction, pSTAT5, human activated CD8+ T [3]: 7.2 fold; pSTAT5 EC50, human activated CD8+ T [3]: 0.12 nM
–	–	–	–	W3XX115-T2U3.E44-6.uIgG4V322 (Fc fusion) APTSSSTKKTQLQLEHLLLDLQMILNGINNYKNPKLTRMLTFKFYMPKKATELKHLQCLEEELKPLEEVLNLAQSKNFHLRPRDLISNINVIVLELKGSETTFMCEYADETATIVEFLNRWITFCQSIIESKYGPPCPPCPAPEAAGGPSVFLFPPKPKDTLMISRTPEVTCVVVDVSQEDPEVQFNWYVDGVEVHNAKTKPREEQFNSTYRVVSVLTVLHQDWLNGKEYKCKVSNKGLPSSIEKTISKAKGQPREPQVYTLPPCQEEMTKNQVSLWCLVKGFYPSDIAVEWESNGQPENNYKTTPPVLDSDGSFFLYSRLTVDKSRWQEGNVFSCSVMHEALHNHYTQKSLSLSLGK heavy: QVQLVQSGAEVKKPGSSVKVSCKASGFTFTTYYISWVRQAPGQGLEYLGYINMGSGGTNYNEKFKGRVTITADKSTSTAYMELSSLRSEDTAVYYCAIIGYFDYWGQGTMVTVSSASTKGPSVFPLAPCSRSTSESTAALGCLVKDYFPEPVTVSWNSGALTSGVHTFPAVLQSSGLYSLSSVVTVPSSSLGTKTYTCNVDHKPSNTKVDKRVESKYGPPCPPCPAPEAAGGPSVFLFPPKPKDTLMISRTPEVTCVVVDVSQEDPEVQFNWYVDGVEVHNAKTKPREEQFNSTYRVVSVLTVLHQDWLNGKEYKCKVSNKGLPSSIEKTISKAKGQPREPQVCTLPPSQEEMTKNQVSLSCAVKGFYPSDIAVEWESNGQPENNYKTTPPVLDSDGSFFLVSRLTVDKSRWQEGNVFSCSVMHEALHNHYTQKSLSLSLGK light: DVVMTQSPLSLPVTLGQPASISCRSSQSLLDSDGGTYLYWFQQRPGQSPRRLIYLVSTLGSGVPDRFSGSGSGTDFTLKISRVEAEDVGVYYCMQLTHWPYTFGQGTKLEIKRTVAAPSVFIFPPSDEQLKSGTASVVCLLNNFYPREAKVQWKVDNALQSGNSQESVTEQDSKDSTYSLSSTLTLSKADYEKHKVYACEVTHQGLSSPVTKSFNRGEC	PD-1+/PD-1- ratio (pSTAT5 potency, activated versus primary CD8+ T) [4]: 3470 fold; Potency reduction, pSTAT5, human primary CD8+ T [5]: 13.4 fold; pSTAT5 EC50, human primary CD8+ T [5]: 191 nM; Potency reduction, pSTAT5, human activated CD8+ T (CD25 positive and PD-1 positive) [6]: 2 fold; pSTAT5 EC50, human activated CD8+ T (CD25 positive and PD-1 positive) [6]: 55 pM; PD-1+/PD-1- ratio (pSTAT5 potency, activated versus primary CD8+ T) [7]: 3470 fold
